The record followed here is patent US20100004431A1 (Xencor, published 2010).

The target of experiment [1] is T1, CD25 (R&D systems cat. #223-2A/CF) (UniProt P01589 22-213, limits assumed).
T1 construct: Bought soluble protein
T1 sequence (looked up): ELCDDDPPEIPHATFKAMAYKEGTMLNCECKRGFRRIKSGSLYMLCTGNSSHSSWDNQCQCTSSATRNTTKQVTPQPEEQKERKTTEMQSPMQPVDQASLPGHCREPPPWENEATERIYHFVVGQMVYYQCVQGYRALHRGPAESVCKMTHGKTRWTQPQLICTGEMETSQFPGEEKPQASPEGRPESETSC
The experiment can be described thus: Biacore (SPR); antibody captured on Protein A, CD25 injected. (Surface plasmon resonance follows binding to a sensor surface in real time, without labels.)
Method: (§1) Binding was measured by injection of two-fold serial dilutions of CD25 (0 nM to 50 nM; R&D systems) in buffer at 25° C. with a flow rate of 25-30 μL/min for 2 min followed by a dissociation phase of 4-5 min. Association rates (kₒₙ) and dissociation rates (koff) were calculated using a simple one-to-one Langmuir binding model (BIAcore Evaluation Software version 3.2). The equilibrium dissociation constant (Kd) was calculated as the ratio of koff/kₒₙ).

The target of experiment [2] is T1, CD25 (R&D systems cat. #223-2A/CF). The experiment is described as above. The source holds these as a separate data set.
Method: as §1

Where two headings read alike, the source gives them in different places.

B1: anti-CD25 H1.14L1.48 (antibody, V domains shown)
VH: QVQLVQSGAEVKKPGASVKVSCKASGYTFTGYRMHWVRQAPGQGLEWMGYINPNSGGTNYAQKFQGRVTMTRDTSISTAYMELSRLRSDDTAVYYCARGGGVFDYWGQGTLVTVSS
VL: EIVLTQSPATLSLSPGERATLSCRASQSVSYMHWYQQKPGQAPRLLIYTTSNRATGIPARFSGSGSGTDFTLTISSLEPEDFAVYYCHQRSTYPLTFGSGTKLEIK
Regarding B1, in experiment [1], the “Fold change in Kd vs. H0L0” value was found to be 1.2 fold; the Kd (usually the constant that tells how readily two partners part at equilibrium) was found to be 0.21 nM; the dissociation rate constant (koff) (usually the rate constant with which the complex falls apart) worked out at 0.00017 s⁻¹; the on-rate constant (kon) (as a rule, a measure of how fast the partners come together) was 790000 M⁻¹ s⁻¹.

B2: anti-CD25 H1.23L1.48 (antibody, V domains shown)
VH: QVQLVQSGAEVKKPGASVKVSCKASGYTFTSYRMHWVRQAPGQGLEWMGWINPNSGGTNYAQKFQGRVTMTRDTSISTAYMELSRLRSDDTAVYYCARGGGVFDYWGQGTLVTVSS
VL: EIVLTQSPATLSLSPGERATLSCRASQSVSYMHWYQQKPGQAPRLLIYTTSNRATGIPARFSGSGSGTDFTLTISSLEPEDFAVYYCHQRSTYPLTFGSGTKLEIK
B2: in experiment [1], the “Fold change in Kd vs. H0L0” value was found to be 1.1 fold, the Kd amounted to 0.23 nM, the koff came to 0.00018 s⁻¹ and the kon was 750000 M⁻¹ s⁻¹.

B3: anti-CD25 H1.23L1.20 (antibody, V domains shown)
VH: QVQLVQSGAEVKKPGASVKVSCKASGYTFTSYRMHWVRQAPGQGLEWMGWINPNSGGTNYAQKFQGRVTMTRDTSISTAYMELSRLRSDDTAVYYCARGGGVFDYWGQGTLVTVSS
VL: EIVLTQSPATLSLSPGERATLSCRASQSVSYLHWYQQKPGQAPRLLIYTTSNRATGIPARFSGSGSGTDFTLTISSLEPEDFAVYYCHQRSTYPLTFGSGTKLEIK
In the case of B3, in experiment [1], the “Fold change in Kd vs. H0L0” value is 1.2 fold, the equilibrium dissociation constant (Kd) came out at 0.22 nM, the dissociation rate constant (koff) came to 0.00016 s⁻¹ and the on-rate (kon) was 710000 M⁻¹ s⁻¹.

B4: anti-CD25 H1.1L1 (antibody, V domains shown)
VH: QVQLVQSGAEVKKPGASVKVSCKASGYTFTSYRMHWVRQAPGQGLEWMGYINPSTGYTEYNQKFQGRVTITRDKSISTAYMELSRLRSDDTAVYYCARGGGVFDYWGQGTLVTVSS
VL: QIVLTQSPATLSLSPGERATLSCRASSSISYMHWFQQKPGQSPQLLIYTTSNLASGVPARFSGSGSGTDYTLTISSLQPEDFAVYYCHQRSTYPLTFGSGTKLEIK
notes: Single variant in the anti-CD25 H1L1 background; also called VH A71R single variant
As for B4, in experiment [2], the “Fold change in Kd vs. H1L1” value amounted to 2 fold, the dissociation constant (Kd) came out at 0.16 nM, the koff amounted to 0.00031 s⁻¹ and the kon is 1.9e+06 M⁻¹ s⁻¹.

B5: anti-CD25 H1.22L1.56 (antibody, V domains shown)
VH: QVQLVQSGAEVKKPGASVKVSCKASGYTFTSYRMHWVRQAPGQGLEWMGWINPNSGGTNYAQKFQGRVTITRDTSISTAYMELSRLRSDDTAVYYCARGGGVFDYWGQGTLVTVSS
VL: QIVLTQSPATLSLSPGERATLSCRASQSVSYLHWFQQKPGQSPQLLIYTTSNRATGIPARFSGSGSGTDFTLTISSLEPEDFAVYYCHQRSTYPLTFGSGTKLEIK
As for B5, in experiment [1], the “Fold change in Kd vs. H0L0” value was 1.2 fold, the equilibrium dissociation constant (Kd) was 0.22 nM, the koff turned out to be 0.00022 s⁻¹ and the on-rate constant (kon) amounted to 970000 M⁻¹ s⁻¹.

B6: anti-CD25 H1.22L1.43 (antibody, V domains shown)
VH: QVQLVQSGAEVKKPGASVKVSCKASGYTFTSYRMHWVRQAPGQGLEWMGWINPNSGGTNYAQKFQGRVTITRDTSISTAYMELSRLRSDDTAVYYCARGGGVFDYWGQGTLVTVSS
VL: EIVLTQSPATLSLSPGERATLSCRASQSVSYLHWYQQKPGQAPRLLIYTTSNRATGIPARFSGSGSGTDYTLTISSLQPEDFAVYYCHQRSTYPLTFGSGTKLEIK
As for B6, in experiment [1], the “Fold change in Kd vs. H0L0” value was -1.1 fold, binding was characterised by a dissociation constant (Kd) of 0.3 nM, the off-rate (koff) was determined as 0.00019 s⁻¹ and the kon worked out at 640000 M⁻¹ s⁻¹.

B7: anti-CD25 H1.12L1.56 (antibody, V domains shown)
VH: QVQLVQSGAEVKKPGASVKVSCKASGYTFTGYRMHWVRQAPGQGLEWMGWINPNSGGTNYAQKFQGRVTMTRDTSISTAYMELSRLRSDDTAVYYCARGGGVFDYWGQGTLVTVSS
VL: QIVLTQSPATLSLSPGERATLSCRASQSVSYLHWFQQKPGQSPQLLIYTTSNRATGIPARFSGSGSGTDFTLTISSLEPEDFAVYYCHQRSTYPLTFGSGTKLEIK
Take B7: in experiment [1], the “Fold change in Kd vs. H0L0” value came to 1.2 fold, the Kd was 0.21 nM, the koff came to 0.00018 s⁻¹ and the kon was 850000 M⁻¹ s⁻¹.

B8: anti-CD25 H1.22L1.20 (antibody, V domains shown)
VH: QVQLVQSGAEVKKPGASVKVSCKASGYTFTSYRMHWVRQAPGQGLEWMGWINPNSGGTNYAQKFQGRVTITRDTSISTAYMELSRLRSDDTAVYYCARGGGVFDYWGQGTLVTVSS
VL: EIVLTQSPATLSLSPGERATLSCRASQSVSYLHWYQQKPGQAPRLLIYTTSNRATGIPARFSGSGSGTDFTLTISSLEPEDFAVYYCHQRSTYPLTFGSGTKLEIK
Take B8: in experiment [1], the “Fold change in Kd vs. H0L0” value stood at 1.1 fold, the Kd stood at 0.24 nM, the off-rate constant (koff) is 0.00018 s⁻¹ and the kon was found to be 720000 M⁻¹ s⁻¹.

B9: anti-CD25 H1.22L1.48 (antibody, V domains shown)
VH: QVQLVQSGAEVKKPGASVKVSCKASGYTFTSYRMHWVRQAPGQGLEWMGWINPNSGGTNYAQKFQGRVTITRDTSISTAYMELSRLRSDDTAVYYCARGGGVFDYWGQGTLVTVSS
VL: EIVLTQSPATLSLSPGERATLSCRASQSVSYMHWYQQKPGQAPRLLIYTTSNRATGIPARFSGSGSGTDFTLTISSLEPEDFAVYYCHQRSTYPLTFGSGTKLEIK
As to B9, in experiment [1], the “Fold change in Kd vs. H0L0” value came to 1.5 fold, the Kd came out at 0.17 nM, the koff came out at 0.00014 s⁻¹ and the on-rate (kon) was 780000 M⁻¹ s⁻¹.

B10: anti-CD25 H1.12L1.43 (antibody, V domains shown)
VH: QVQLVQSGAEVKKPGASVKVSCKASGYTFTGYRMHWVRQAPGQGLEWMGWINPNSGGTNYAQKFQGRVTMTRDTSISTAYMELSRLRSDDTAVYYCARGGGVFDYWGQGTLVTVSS
VL: EIVLTQSPATLSLSPGERATLSCRASQSVSYLHWYQQKPGQAPRLLIYTTSNRATGIPARFSGSGSGTDYTLTISSLQPEDFAVYYCHQRSTYPLTFGSGTKLEIK
With B10, in experiment [1], the “Fold change in Kd vs. H0L0” value turned out to be 1.4 fold, the Kd is 0.19 nM, the off-rate (koff) stood at 0.00014 s⁻¹ and the kon amounted to 720000 M⁻¹ s⁻¹.

B11: anti-CD25 H1.14L1.43 (antibody, V domains shown)
VH: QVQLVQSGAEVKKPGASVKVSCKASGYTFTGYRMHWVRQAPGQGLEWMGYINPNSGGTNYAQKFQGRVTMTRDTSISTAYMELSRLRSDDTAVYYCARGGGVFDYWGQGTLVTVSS
VL: EIVLTQSPATLSLSPGERATLSCRASQSVSYLHWYQQKPGQAPRLLIYTTSNRATGIPARFSGSGSGTDYTLTISSLQPEDFAVYYCHQRSTYPLTFGSGTKLEIK
As to B11, in experiment [1], the “Fold change in Kd vs. H0L0” value was -1.3 fold, the Kd was determined as 0.32 nM, the koff turned out to be 0.00022 s⁻¹ and the kon turned out to be 670000 M⁻¹ s⁻¹.

B12: anti-CD25 H1.23L1.56 (antibody, V domains shown)
VH: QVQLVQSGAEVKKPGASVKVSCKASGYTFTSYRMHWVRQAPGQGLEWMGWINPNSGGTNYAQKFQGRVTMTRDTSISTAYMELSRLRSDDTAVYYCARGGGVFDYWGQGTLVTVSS
VL: QIVLTQSPATLSLSPGERATLSCRASQSVSYLHWFQQKPGQSPQLLIYTTSNRATGIPARFSGSGSGTDFTLTISSLEPEDFAVYYCHQRSTYPLTFGSGTKLEIK
For the molecule B12, in experiment [1], the “Fold change in Kd vs. H0L0” value worked out at 1.2 fold, binding was put at a Kd of 0.21 nM, the off-rate (koff) stood at 0.0002 s⁻¹ and the kon worked out at 950000 M⁻¹ s⁻¹.

B13: anti-CD25 H1.14L1.56 (antibody, V domains shown)
VH: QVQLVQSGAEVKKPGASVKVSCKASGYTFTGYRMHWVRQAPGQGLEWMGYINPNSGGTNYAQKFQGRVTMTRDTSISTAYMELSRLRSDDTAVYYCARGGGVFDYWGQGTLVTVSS
VL: QIVLTQSPATLSLSPGERATLSCRASQSVSYLHWFQQKPGQSPQLLIYTTSNRATGIPARFSGSGSGTDFTLTISSLEPEDFAVYYCHQRSTYPLTFGSGTKLEIK
For the molecule B13, in experiment [1], the “Fold change in Kd vs. H0L0” value came to 1.6 fold; the affinity, expressed as Kd, was 0.16 nM; the off-rate constant (koff) turned out to be 0.00017 s⁻¹; the kon was 1e+06 M⁻¹ s⁻¹.

B14: anti-CD25 H1L1.56 (antibody, V domains shown)
VH: QVQLVQSGAEVKKPGASVKVSCKASGYTFTSYRMHWVRQAPGQGLEWMGYINPSTGYTEYNQKFQGRVTITADKSISTAYMELSRLRSDDTAVYYCARGGGVFDYWGQGTLVTVSS
VL: QIVLTQSPATLSLSPGERATLSCRASQSVSYLHWFQQKPGQSPQLLIYTTSNRATGIPARFSGSGSGTDFTLTISSLEPEDFAVYYCHQRSTYPLTFGSGTKLEIK
notes: the fourth VL chain; also called VL combination variant L1.56 paired with H1
Consider B14, for which, in experiment [1], the “Fold change in Kd vs. H0L0” value was -5 fold, the dissociation constant (Kd) was determined as 1.3 nM, the off-rate constant (koff) came out at 0.0007 s⁻¹ and the kon turned out to be 540000 M⁻¹ s⁻¹.

B15: anti-CD25 H1.4L1 (antibody, V domains shown)
VH: QVQLVQSGAEVKKPGASVKVSCKASGYTFTSYRMHWVRQAPGQGLEWMGYINPSTGYTEYNQKFQGRVTITADTSISTAYMELSRLRSDDTAVYYCARGGGVFDYWGQGTLVTVSS
VL: QIVLTQSPATLSLSPGERATLSCRASSSISYMHWFQQKPGQSPQLLIYTTSNLASGVPARFSGSGSGTDYTLTISSLQPEDFAVYYCHQRSTYPLTFGSGTKLEIK
notes: Single variant in the anti-CD25 H1L1 background; also called VH K73T single variant
As to B15, in experiment [2], the “Fold change in Kd vs. H1L1” value was 1.1 fold, the Kd turned out to be 0.3 nM, the koff came out at 0.0006 s⁻¹ and the on-rate constant (kon) was 2e+06 M⁻¹ s⁻¹.

B16: anti-CD25 H1L1.20 (antibody, V domains shown)
VH: QVQLVQSGAEVKKPGASVKVSCKASGYTFTSYRMHWVRQAPGQGLEWMGYINPSTGYTEYNQKFQGRVTITADKSISTAYMELSRLRSDDTAVYYCARGGGVFDYWGQGTLVTVSS
VL: EIVLTQSPATLSLSPGERATLSCRASQSVSYLHWYQQKPGQAPRLLIYTTSNRATGIPARFSGSGSGTDFTLTISSLEPEDFAVYYCHQRSTYPLTFGSGTKLEIK
notes: also called VL combination variant L1.20 paired with H1
Take B16: in experiment [1], the “Fold change in Kd vs. H0L0” value was -4.2 fold, binding was put at a Kd of 1.1 nM, the koff came to 0.00048 s⁻¹ and the association rate constant (kon) stood at 430000 M⁻¹ s⁻¹.

B17: anti-CD25 H1L1.5 (antibody, V domains shown)
VH: QVQLVQSGAEVKKPGASVKVSCKASGYTFTSYRMHWVRQAPGQGLEWMGYINPSTGYTEYNQKFQGRVTITADKSISTAYMELSRLRSDDTAVYYCARGGGVFDYWGQGTLVTVSS
VL: EIVLTQSPATLSLSPGERATLSCRASSSISYMHWFQQKPGQSPQLLIYTTSNLASGVPARFSGSGSGTDYTLTISSLQPEDFAVYYCHQRSTYPLTFGSGTKLEIK
notes: Single variant in the anti-CD25 H1L1 background; also called VL Q1E single variant
In the case of B17, in experiment [2], the “Fold change in Kd vs. H1L1” value amounted to 1.1 fold, the Kd was determined as 0.29 nM, the off-rate constant (koff) is 0.00052 s⁻¹ and the kon amounted to 1.8e+06 M⁻¹ s⁻¹.

B18: anti-CD25 H1L1.48 (antibody, V domains shown)
VH: QVQLVQSGAEVKKPGASVKVSCKASGYTFTSYRMHWVRQAPGQGLEWMGYINPSTGYTEYNQKFQGRVTITADKSISTAYMELSRLRSDDTAVYYCARGGGVFDYWGQGTLVTVSS
VL: EIVLTQSPATLSLSPGERATLSCRASQSVSYMHWYQQKPGQAPRLLIYTTSNRATGIPARFSGSGSGTDFTLTISSLEPEDFAVYYCHQRSTYPLTFGSGTKLEIK
notes: also called VL combination variant L1.48 paired with H1
For B18, in experiment [1], the “Fold change in Kd vs. H0L0” value was -2.4 fold, binding was characterised by a dissociation constant (Kd) of 0.63 nM, the off-rate (koff) was 0.00031 s⁻¹ and the kon stood at 500000 M⁻¹ s⁻¹.

B19: anti-CD25 H1L1.43 (antibody, V domains shown)
VH: QVQLVQSGAEVKKPGASVKVSCKASGYTFTSYRMHWVRQAPGQGLEWMGYINPSTGYTEYNQKFQGRVTITADKSISTAYMELSRLRSDDTAVYYCARGGGVFDYWGQGTLVTVSS
VL: EIVLTQSPATLSLSPGERATLSCRASQSVSYLHWYQQKPGQAPRLLIYTTSNRATGIPARFSGSGSGTDYTLTISSLQPEDFAVYYCHQRSTYPLTFGSGTKLEIK
notes: also called VL combination variant L1.43 paired with H1
As to B19, in experiment [1], the “Fold change in Kd vs. H0L0” value is -5 fold, the Kd was 1.3 nM, the koff came out at 0.00053 s⁻¹ and the on-rate constant (kon) was found to be 410000 M⁻¹ s⁻¹.
